Source: patent US8809287B2, “Compositions and methods for altering Wnt autocrine signaling” (Icahn School of Medicine at Mount Sinai, priority 2004, dated 2014)
“Also recorded” adds a separate entry of the source.

How the values were obtained:
[1] = test system: uncomplexed β-catenin; experiment: GST-E-cadherin binding assay / immunoblot of uncomplexed β-catenin, Wnt-3a expressing NIH3T3 cells; type: cell-based, mouse; conditions: NIH3T3 cells stably expressing Wnt-3a; purified DKK1 (10 nM)
Description: β-catenin levels were assessed using the GST-E-cadherin binding assay, which has been previously described (Bafico et al., (1998) Oncogene 16:2819-2825). Briefly, bacterially expressed GST-E-cadherin was purified with glutathione-Sepharose beads and incubated with 1 mg of each cell lysate. The GST-E-cadherin/[…]-catenin complex bound to the beads was recovered by centrifugation and analyzed by SDS-PAGE followed by immunoblotting. The uncomplexed β-catenin was detected using a monoclonal antibody to β-catenin (Transduction Laboratories). Unphosphorylated β-catenin was detected with a monoclonal antibody specific for β-catenin dephosphorylated at residues 27-37 (Alexis, Läufelfingen, Switzerland). FRP1-HA and DKK1-HA were detected with an anti-HA monoclonal antibody (Hybridoma Center, Mount Sinai School of Medicine, New York). […]

[2] = test system: TCF dependent transcription; experiment: TOP-Glow/FOP-Glow TCF reporter assay in PAI tumor cells; type: cell-based, human; conditions: PAI ovarian tumor cells, 48 hours
Description: Wnt signaling activates TCF dependent transcription, which can be monitored by reporters containing TCF responsive elements (Morin et al., (1997) Science 275:1787-1790). TCF responsive elements operably linked to a reporter (TOP-Glow, wild type, or FOP-Glow, mutant) were analyzed for transcriptional activity in PAI tumor cells in the presence or absence of DKK1. Ovarian tumor PAI cells plated at 3×10^5 per well in 6-well plates were co-transfected with 1 μg of either the TOP-glow or FOP-glow plasmids (Upstate Biotechnology, Waltham, Mass.) and 0.001 μg of the Renilla control plasmid (pRL-CMV) utilizing Fugene (Roche) according to the manufacturer's instructions. After 48 hours cells were lysed and analyzed utilizing the Dual Luciferase Reporter Assay system (Promega, Madison, Wis.). […] These findings further established that TCF dependent transcription was constitutively activated in these tumor cells by an autocrine Wnt mechanism.

[3] = test system: LEF-1; experiment: Northern blot of LEF-1 in MDAMB157 cells; type: cell-based, human; conditions: stable expression
Description: (§1) Alterations in the expression of a number of genes identified as targets of canonical Wnt signaling have been reported, although it should be noted that there is variability among Wnt target genes in different cell systems (Giles et al., (2003). Biochim. Biophys. Acta 1653:1-24). To investigate the effects of FRP1 and DKK1 inhibition on gene expression in MDAMB157 breast tumor cells, Northern blot analysis was performed on representative Wnt transcriptional targets, including Myc (He et al., (1998) Science 281:1509-1512), the LEF-1 transcription factor (Filali et al., (2002) J. Biol. Chem. 277:33398-33410) and the dominant negative helix-loop-helix transcriptional regulator, Id2 (Rockman et al., (2001) J. Biol. Chem. 276:45113-45119).
(§2) Total RNAs from MDAMB157 cells exogenously expressing vector alone, FRP1, or DKK1 were extracted using Triazol (Invitrogen), separated by agarose gel electrophoresis (1% agarose gel) and transferred to a nylon membrane (Hybond, Pharmacia). Probes were labeled by the Random Prime Labelling System method (Amersham Biosciences), and hybridization was performed overnight utilizing the Hybrisol I solution (Serologicals Corporation) according to the manufacturer's instructions. Normalization was performed utilizing a commercial human GADPH control probe (BD Biosciences Clontech). Probes were labelled with α-^32P-dCTP.

[4] = test system: MYC; experiment: Northern blot of MYC in MDAMB157 cells; type: cell-based, human; conditions: stable expression
Description: as §1, §2

[5] = test system: uncomplexed β-catenin; experiment: Uncomplexed β-catenin in Wnt autocrine tumor cells (summary statements); type: cell-based, human; conditions: summary of the Examples
Description: β-catenin levels were assessed using the GST-E-cadherin binding assay, which has been previously described (Bafico et al., (1998) Oncogene 16:2819-2825). Briefly, bacterially expressed GST-E-cadherin was purified with glutathione-Sepharose beads and incubated with 1 mg of each cell lysate. The GST-E-cadherin/[…]-catenin complex bound to the beads was recovered by centrifugation and analyzed by SDS-PAGE followed by immunoblotting. The uncomplexed β-catenin was detected using a monoclonal antibody to β-catenin (Transduction Laboratories). Unphosphorylated β-catenin was detected with a monoclonal antibody specific for β-catenin dephosphorylated at residues 27-37 (Alexis, Läufelfingen, Switzerland). FRP1-HA and DKK1-HA were detected with an anti-HA monoclonal antibody (Hybridoma Center, Mount Sinai School of Medicine, New York).

[6] = test system: cyclin D1; experiment: Northern blot of Cyclin D1 in HCT116 clone; type: cell-based, human; conditions: HCT116 wild type allele-containing clone
Text: (§3) We next assessed the effects of FRP1 inhibition on the expression of Id2, Cyclin D1 and Myc, known targets of Wnt/β-catenin in colorectal cancer (Rockman et al. (2001) J. Biol. Chem. 276:45113-45119; Tetsu and McCormick (1999) Nature 398:422-426; He et al. (1998) Science 281:1509-1512). RNAs were extracted from HCT116 parental cells, and either wild type or mutant β-catenin allele containing clones transfected with either vector control or FRP1-HA using Triazol (Invitrogen). The RNAs were separated by (1%) agarose gel electrophoresis and transferred to a nylon membrane (Hybond®, Pharmacia). Probes were labeled by the Random Prime Labelling System method (Amersham Biosciences), and hybridization was performed overnight utilizing the Hybrisol I solution (Serologicals Corporation) according to the manufacturer's instructions. Normalization was performed utilizing a commercial human GADPH control probe (BD Biosciences Clontech).

[7] = test system: MYC; experiment: Northern blot of Myc in HCT116 clone; type: cell-based, human; conditions: HCT116 wild type allele-containing clone
Text: as §3

B1: DKK1: Dickkopf-1, secreted Wnt antagonist protein that binds Wnt co-receptor LRP6; used purified, in conditioned media or retrovirally expressed with HA tag (protein, UniProt O94907 32-266, looked up)
Dickkopf-related protein 1: TLNSVLNSNAIKNLPPPLGGAAGHPGSAVSAAPGILYPGGNKYQTIDNYQPYPCAEDEECGTDEYCASPTRGGDAGVQICLACRKRRKRCMRHAMCCPGNYCKNGICVSSDQNHFRGEIEETITESFGNDHSTLDGYSRRTTLSSKMYHTKGQEGSVCLRSSDCASGLCCARHFWSKICKPVLKEGQVCTKHRRKGSHGLEIFQRCYCGEGLSCRIQKDHHQASNSSRLHTCQRH
modifications: HA tag in some uses
up-regulated β-catenin levels [1]: striking inhibition of up-regulated β-catenin levels
level of endogenous TCF dependent signaling [2]: striking reduction
expression of LEF-1 [3]: reduced
expression of MYC [4]: reduced
up regulated uncomplexed β-catenin levels [5]: down regulation; also recorded: striking reduction

B2: FRP1: human secreted Frizzled Related Protein 1, Wnt antagonist; expressed from pBabe-derived retrovirus with carboxy-terminal HA tag (protein, UniProt Q8N474 32-314, looked up)
Secreted frizzled-related …: SEYDYVSFQSDIGPYQSGRFYTKPPQCVDIPADLRLCHNVGYKKMVLPNLLEHETMAEVKQQASSWVPLLNKNCHAGTQVFLCSLFAPVCLDRPIYPCRWLCEAVRDSCEPVMQFFGFYWPEMLKCDKFPEGDVCIAMTPPNATEASKPQGTTVCPPCDNELKSEAIIEHLCASEFALRMKIKEVKKENGDKKIVPKKKKPLKLGPIKKKDLKKLVLYLKNGADCPCHQLDNLSHHFLIMGRKVKSQYLLTAIHKWDKKNKEFKNFMKKMKNHECPTFQSVFK
modifications: C-terminal HA tag
notes: human secreted Frizzled Related Protein 1, Wnt antagonist; expressed from pBabe-derived retrovirus with carboxy-terminal HA tag
expression of LEF-1 [3]: reduced
expression of MYC [4]: reduced
expression of Cyclin D1 [6]: dramatically inhibited
expression of Myc [7]: dramatically inhibited
up regulated uncomplexed β-catenin levels [5]: down regulation
